In article PMC12718381:

Target: HA-STIM1-L258C (UniProt Q13586)
Test: disulfide crosslinking, Western blot
Conditions: diamide-treated STIM1/2 DKO HEK293 cells coexpressing HA-STIM1-L258C and a single mCh-STIM1 mutant; read off a plot

Row | Substance | other: Crosslinking (%)
1 | mCh-STIM1 417C | 2.9%
2 | mCh-STIM1 418C | 3.8%
3 | mCh-STIM1 422C | 1.2%
4 | mCh-STIM1 424C | 7%
5 | mCh-STIM1 421C | 1.8%
